Measurements from publication PMC10617981 (2023).

Molecular target: T1, SND1 recombinant protein (Origene, TP300059) (human, UniProt Q7KZF4 1-910, site-specific cysteine labeling with the RED-MALEIMIDE 2nd Generation kit (fluorescent dye))
T1 chain: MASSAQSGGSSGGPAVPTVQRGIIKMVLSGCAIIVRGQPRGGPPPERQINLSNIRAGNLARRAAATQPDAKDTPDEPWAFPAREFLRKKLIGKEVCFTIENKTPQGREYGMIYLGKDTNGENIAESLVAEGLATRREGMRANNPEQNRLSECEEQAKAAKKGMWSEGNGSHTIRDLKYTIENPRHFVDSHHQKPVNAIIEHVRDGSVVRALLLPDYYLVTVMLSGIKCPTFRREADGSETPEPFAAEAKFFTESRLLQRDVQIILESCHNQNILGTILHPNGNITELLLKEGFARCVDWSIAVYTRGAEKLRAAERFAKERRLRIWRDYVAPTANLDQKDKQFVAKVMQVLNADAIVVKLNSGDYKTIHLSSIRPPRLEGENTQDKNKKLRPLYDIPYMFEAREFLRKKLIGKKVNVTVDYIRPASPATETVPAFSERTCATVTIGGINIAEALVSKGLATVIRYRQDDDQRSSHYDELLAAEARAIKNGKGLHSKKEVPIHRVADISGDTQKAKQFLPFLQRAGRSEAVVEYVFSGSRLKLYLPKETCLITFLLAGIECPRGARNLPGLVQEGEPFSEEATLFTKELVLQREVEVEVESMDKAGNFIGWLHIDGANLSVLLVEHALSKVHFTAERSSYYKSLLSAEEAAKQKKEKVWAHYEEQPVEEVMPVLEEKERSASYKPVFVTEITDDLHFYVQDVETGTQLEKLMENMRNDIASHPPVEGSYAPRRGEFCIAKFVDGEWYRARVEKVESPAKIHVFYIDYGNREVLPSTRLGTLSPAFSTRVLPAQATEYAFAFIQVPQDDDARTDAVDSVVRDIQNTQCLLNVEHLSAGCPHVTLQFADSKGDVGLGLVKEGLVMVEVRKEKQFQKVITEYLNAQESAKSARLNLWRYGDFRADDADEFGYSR
Test: MST

B1: NSP9 recombinant protein (Abcam, ab289608) (natural protein)
chain: NNELSPVALRQMSCAAGTTQTACTDDNALAYYNTTKGGRFVLALLSDLQDLKWARFPKSDGTGTIYTELEPPCRFVTDTPKGPKVKYLYFIKGLNNLNRGMVLGSLAATVRLQ
Q: Which Kd does the source give for B1 here?
A: The Kd was 8.8 µM.
